Reference: article doi:10.1101/2025.11.27.690911

Biological target: thrombin (UniProt P00734;P00734 328-363;364-622)
Experiment: SPR

B1: SuperCan (structured_DNA)
DNA: GAAGAATGAACAGAGTAGGTCAAAGTCAGTGGGGAGTACACCACTGACGACGAGTTGAATGAACGTAGGAAGTAAGTATACGTTCATTCTTAGCTTCCAAAGCAGAGTGCGAGGCTTTGGAGCGTAACTTGCGTTATCGTCGCAAGAAAGCAAACGGTGATGAGACAATC
B1: binds.
